# Measured values published in IntAct's records for PubMed 21070972.
# B1: Cell division control protein 48 (Saccharomyces cerevisiae), P25694 (parent)
# chain: MGEEHKPLLDASGVDPREEDKTATAILRRKKKDNMLLVDDAINDDNSVIAINSNTMDKLELFRGDTVLVKGKKRKDTVLIVLIDDELEDGACRINRVVRNNLRIRLGDLVTIHPCPDIKYATRISVLPIADTIEGITGNLFDVFLKPYFVEAYRPVRKGDHFVVRGGMRQVEFKVVDVEPEEYAVVAQDTIIHWEGEPINREDEENNMNEVGYDDIGGCRKQMAQIREMVELPLRHPQLFKAIGIKPPRGVLMYGPPGTGKTLMARAVANETGAFFFLINGPEVMSKMAGESESNLRKAFEEAEKNAPAIIFIDEIDSIAPKRDKTNGEVERRVVSQLLTLMDGMKARSNVVVIAATNRPNSIDPALRRFGRFDREVDIGIPDATGRLEVLRIHTKNMKLADDVDLEALAAETHGYVGADIASLCSEAAMQQIREKMDLIDLDEDEIDAEVLDSLGVTMDNFRFALGNSNPSALRETVVESVNVTWDDVGGLDEIKEELKETVEYPVLHPDQYTKFGLSPSKGVLFYGPPGTGKTLLAKAVATEVSANFISVKGPELLSMWYGESESNIRDIFDKARAAAPTVVFLDELDSIAKARGGSLGDAGGASDRVVNQLLTEMDGMNAKKNVFVIGATNRPDQIDPAILRPGRLDQLIYVPLPDENARLSILNAQLRKTPLEPGLELTAIAKATQGFSGADLLYIVQRAAKYAIKDSIEAHRQHEAEKEVKVEGEDVEMTDEGAKAEQEPEVDPVPYITKEHFAEAMKTAKRSVSDAELRRYEAYSQQMKASRGQFSNFNFNDAPLGTTATDNANSNNSAPSGAGAAFGSNAEEDDDLYS
# partner: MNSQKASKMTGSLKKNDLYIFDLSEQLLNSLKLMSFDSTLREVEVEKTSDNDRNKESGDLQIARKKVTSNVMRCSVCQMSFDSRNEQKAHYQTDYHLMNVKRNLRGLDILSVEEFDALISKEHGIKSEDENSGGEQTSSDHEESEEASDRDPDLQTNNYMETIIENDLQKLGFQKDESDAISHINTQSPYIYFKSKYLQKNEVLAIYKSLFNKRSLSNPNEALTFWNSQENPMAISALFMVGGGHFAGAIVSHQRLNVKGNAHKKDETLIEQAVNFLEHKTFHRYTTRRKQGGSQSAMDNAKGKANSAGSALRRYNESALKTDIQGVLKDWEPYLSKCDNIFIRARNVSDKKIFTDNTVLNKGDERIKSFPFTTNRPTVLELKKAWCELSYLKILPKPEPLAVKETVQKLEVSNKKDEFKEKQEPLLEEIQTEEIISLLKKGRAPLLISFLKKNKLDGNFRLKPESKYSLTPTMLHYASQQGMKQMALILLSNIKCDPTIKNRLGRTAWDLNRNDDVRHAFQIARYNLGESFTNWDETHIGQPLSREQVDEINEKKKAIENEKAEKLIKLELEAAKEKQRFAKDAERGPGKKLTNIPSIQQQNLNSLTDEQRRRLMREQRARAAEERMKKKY
# B2: tRNA endonuclease ANKZF1 (Mus musculus), Q80UU1 (parent)
# chain: MAKPAGDAAVGSRSGELFLPSVSSSATSPAPSAAPAPASVSLLSLNGEAPLIRGLSLVSQAPGEALAWAPRTSCPGENTSSGGKVSPYSLEISEKLFCSACDQIFQNHQEQREHYKLDWHRFNLKQRLKNKPLLSASDFEQQSSTGDLSSISGSDDTDSSSEEDLLPLDEGRAESEKPNRPPGFYPHRVLFKNAQGQFLYAYRCVLGPHQIPPEKAELLLQNLQNGGPRYYVVLMAAAGHFAGAIFQGREVVAHKTFHRYTVRAKRGTAQGLQDAHGRASRSAGANLRRYNEAMLYKDVRNLLAGPIWSKALGEAETVLFRAPRSGRSLFFGGQGAPLQRDDPRLWDIPLTTRRPTFGELQRVLHKLTTLQVYDEDPREMVRFHSPETHWKPVREERKKDTEKEKTKVPSDANKPLGQDEEPLKQGSESQEEDGSEVELELVELTLGTLDLREFEVLPKRRRRRKKKERSQEQQCGAHGPLPQQPQDEPFSQPTQEVETPLDTLVYEAKAPGQPELWDTLLAACRAGEVEVLKLQLATGLVDPGVKSLLNAPLGSGGFTLLHAAAAAGRGLVVRLLLEAGADPTVQDSRARPPYTVAADKSTRNEFRRFMEKNLDAYDYNKARVPGPLTQEMEARQATRKKEQKAARRQREQQQRKQREQEEQEQEEQRRFAALSDREKRALAAERRLAAQLGAPSPPVPDSAVASAGRCWSCGVSLQGLIPFHYLDFSFCSTRCLRDHRSQAGRPSS
# Variants of: B1
# Details: with vms1_yeast VMS1, Q04311
row,effect of a mutation on the interaction,Variant
1,decreasing interaction strength,S565E

# Variants of: B2
# Details: with tera_mouse Vcp
row,effect of a mutation on the interaction,Variant
1,decreasing interaction strength,E685A;R686A;R687A
